Legend:
Details in all cases: protein: recombinant; label: 5' 6-FAM on strand 1; blunt
TFAM (no MTS) [1] = target: T1, TFAM (no MTS) (Homo sapiens, UniProt Q00059 43-246); experiment: fluorescence anisotropy; Hill n 2.15±0.24; FP: 25 mM HEPES, 10 mM Mg(OAc)2, 25 mM NaOAc, 75 mM KOAc, pH 7.5, 1 nM DNA, TFAM 0-15 nM diluted on ice (read temperature not stated); AFM oligos: on ice, 2 min
T1 sequence: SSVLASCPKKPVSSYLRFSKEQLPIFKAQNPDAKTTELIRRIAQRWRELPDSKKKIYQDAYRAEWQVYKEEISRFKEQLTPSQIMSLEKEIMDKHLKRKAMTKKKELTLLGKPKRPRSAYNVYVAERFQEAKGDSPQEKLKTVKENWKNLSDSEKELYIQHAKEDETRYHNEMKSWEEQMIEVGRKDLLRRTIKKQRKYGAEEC

TFAM (no MTS) [2] = target: T1, TFAM (no MTS); experiment: fluorescence anisotropy; +UVC; Hill n 1.81±0.05; FP: 25 mM HEPES, 10 mM Mg(OAc)2, 25 mM NaOAc, 75 mM KOAc, pH 7.5, 1 nM DNA, TFAM 0-15 nM diluted on ice (read temperature not stated); AFM oligos: on ice, 2 min
TFAM (no MTS) [3] = target: T1, TFAM (no MTS); experiment: fluorescence anisotropy; Hill n 3.09±0.11; FP: 25 mM HEPES, 10 mM Mg(OAc)2, 25 mM NaOAc, 75 mM KOAc, pH 7.5, 1 nM DNA, TFAM 0-15 nM diluted on ice (read temperature not stated); AFM oligos: on ice, 2 min
TFAM (no MTS) [4] = target: T1, TFAM (no MTS); experiment: fluorescence anisotropy; +UVC; Hill n 4.38±0.33; FP: 25 mM HEPES, 10 mM Mg(OAc)2, 25 mM NaOAc, 75 mM KOAc, pH 7.5, 1 nM DNA, TFAM 0-15 nM diluted on ice (read temperature not stated); AFM oligos: on ice, 2 min
TFAM (no MTS) [5] = target: T1, TFAM (no MTS); experiment: fluorescence anisotropy; Hill n 2.63±0.22; FP: 25 mM HEPES, 10 mM Mg(OAc)2, 25 mM NaOAc, 75 mM KOAc, pH 7.5, 1 nM DNA, TFAM 0-15 nM diluted on ice (read temperature not stated); AFM oligos: on ice, 2 min
TFAM (no MTS) [6] = target: T1, TFAM (no MTS); experiment: fluorescence anisotropy; Hill n 3.04±0.19; FP: 25 mM HEPES, 10 mM Mg(OAc)2, 25 mM NaOAc, 75 mM KOAc, pH 7.5, 1 nM DNA, TFAM 0-15 nM diluted on ice (read temperature not stated); AFM oligos: on ice, 2 min
TFAM (no MTS) [7] = target: T1, TFAM (no MTS); experiment: fluorescence anisotropy; +UVC; Hill n 1.90±0.12; FP: 25 mM HEPES, 10 mM Mg(OAc)2, 25 mM NaOAc, 75 mM KOAc, pH 7.5, 1 nM DNA, TFAM 0-15 nM diluted on ice (read temperature not stated); AFM oligos: on ice, 2 min
TFAM (no MTS) [8] = target: T1, TFAM (no MTS); experiment: fluorescence anisotropy; Hill n 2.77±0.17; FP: 25 mM HEPES, 10 mM Mg(OAc)2, 25 mM NaOAc, 75 mM KOAc, pH 7.5, 1 nM DNA, TFAM 0-15 nM diluted on ice (read temperature not stated); AFM oligos: on ice, 2 min
TFAM (no MTS) [9] = target: T1, TFAM (no MTS); experiment: fluorescence anisotropy; +UVC; Hill n 2.18±0.14; FP: 25 mM HEPES, 10 mM Mg(OAc)2, 25 mM NaOAc, 75 mM KOAc, pH 7.5, 1 nM DNA, TFAM 0-15 nM diluted on ice (read temperature not stated); AFM oligos: on ice, 2 min

B1: TRNT_10 (dsDNA)
DNA 1: CTTGTAGTATAAACTAATACACCAGTCTTGTAA
DNA 2: TTACAAGACTGGTGTATTAGTTTATACTACAAG
TFAM (no MTS) [1]
  Kd: 4.24 ± 0.12 nM

B2: TRNT_10 +UVC (dsDNA)
DNA 1: CTTGTAGTATAAACTAATACACCAGTCTTGTAA
DNA 2: TTACAAGACTGGTGTATTAGTTTATACTACAAG
modifications: UVC 1500 J/m2 photolesions (positions undefined)
TFAM (no MTS) [2]
  Kd: 7.79 ± 0.8 nM

B3: ND1_353 40mer (dsDNA)
DNA 1: CACAAACATTATTATAATAAACACCCTCACCACTACAATC
DNA 2: GATTGTAGTGGTGAGGGTGTTTATTATAATAATGTTTGTG
TFAM (no MTS) [3]
  Kd: 5.69 ± 0.15 nM

B4: ND1_353 40mer +UVC (dsDNA)
DNA 1: CACAAACATTATTATAATAAACACCCTCACCACTACAATC
DNA 2: GATTGTAGTGGTGAGGGTGTTTATTATAATAATGTTTGTG
modifications: UVC 1500 J/m2 photolesions (positions undefined)
TFAM (no MTS) [4]
  Kd: 7.25 ± 0.39 nM

B5: ND3_92 (dsDNA)
DNA 1: TTAGTAGCTATTACCTTCTTATTATTTGATCTA
DNA 2: TAGATCAAATAATAAGAAGGTAATAGCTACTAA
TFAM (no MTS) [5]
  Kd: 4.53 ± 0.13 nM

B6: ND1_288 (dsDNA)
DNA 1: CTCCACACTAGCAGAGACCAACCGAACCCCCTT
DNA 2: AAGGGGGTTCGGTTGGTCTCTGCTAGTGTGGAG
TFAM (no MTS) [6]
  Kd: 3.41 ± 0.03 nM

B7: ND1_288 +UVC (dsDNA)
DNA 1: CTCCACACTAGCAGAGACCAACCGAACCCCCTT
DNA 2: AAGGGGGTTCGGTTGGTCTCTGCTAGTGTGGAG
modifications: UVC 1500 J/m2 photolesions (positions undefined)
TFAM (no MTS) [7]
  Kd: 6.12 ± 0.22 nM

B8: COX2_229 (dsDNA)
DNA 1: GCCCCCATTCGTATAATAATTACATCACAAGAC
DNA 2: GTCTTGTGATGTAATTATTATACGAATGGGGGC
TFAM (no MTS) [8]
  Kd: 3.94 ± 0.03 nM

B9: COX2_229 +UVC (dsDNA)
DNA 1: GCCCCCATTCGTATAATAATTACATCACAAGAC
DNA 2: GTCTTGTGATGTAATTATTATACGAATGGGGGC
modifications: UVC 1500 J/m2 photolesions (positions undefined)
TFAM (no MTS) [9]
  Kd: 4.87 ± 0.35 nM
